This note sets out measurements from doi:10.1101/2020.12.31.425019 (bioRxiv, 2020).

The data set “negative-stain EM” deals with the molecule itself. Put plainly: negative-stain EM.
The data set “cross-linking” deals with the molecule itself. Description: cross-linking.

B1: fPanx1ΔC (frog Pannexin 1 truncated at Lys357, residues 1-357) (domain or fragment, UniProt B3DLA5 1-357, looked up)
chain: MAIAHIATEYVFSDFLLKDPPESKYKGLRLELAVDKLVSCIAVGLPLLLISLAFAQEITLGSQISCFAPTSFSWRQAAYVDSFCWAAVQQKHLSQSDSGNVPLWLHKFFPYILLLVAVLLYLPNLFWRFTAAPHLSSDLKFVMEELDKCYNRDIKDIKAANNLNSSDKRDGLNSPVVSENLQQSLWEIPLSHYKYPIVEQYLKTKNNSYGLIIKYLICRVVTLIIVFTACIYLGYYISLFSLTDEFTCNIRTGILRNDTALPPLVQCKLIAVGVFRLLSYINLIIYVLIMPFIIYAMLVPFRKTANVLKVYEVLPTFSVQQAPSKTYDDHSLFLLFLEENVSELKSYKFLKVLENIK
modifications: glycosylated in insect cells (upper band sensitive to PNGaseF; site not stated)
For B1, the “stoichiometry N” value in “negative-stain EM” was 7; in the data set “cross-linking”, approximately 7.
